Assay results as given in the RNAGym collection of RNA variant scans (doi:10.7554/elife.90254).

B1: LINE1-full (parent)
chain: UACGUAGGUGGUUUUCCCCUGAUAGUGCUAAGGGGGCCUGGAAGUUUGGACUGGGCAGAGCUCAACACAGCGUGGCAAAGUGGCUGUGGCUAGACUGCCUCUCUGGAUUCCUCGUCACUCAGCAGGGCAUCUCUGAGAGAAAUGCC

Variants of: B1
Assay: self-cleavage, relative activity (ratio to wild type); higher = more cleavage; in vitro, sequencing; the parent is a self-cleaving ribozyme

Going from UACGUAGGUGGUUUUCCCCUGACAGUGCUAAGGGGGCCUGGAAGUUUGGACUGGGCAGAGCUCAACACAGCGUGGCAAAGUGGCUGUGGCUAGACUGCCACUCUGGAUUCCUCGUCACUCAGCAGGGCAUCUCUGAGAGAAAUGCC to UACGUAGGUGGUUUUCCCCUGACAGUGCUAAGGGGGCCUGGAAGUUUGGACUGGGCAGAGCUCAACACAGCGUGGCAAAGUGGCUGUGGCUAGACUGCCCCUCUGGAUUCCUCGUCACUCAGCAGGGCAUCUCUGAGAGAAAUGCC, the self-cleavage rises from 1.3 to 1.79.

Compared with UACGUAGGUGGUUUUCCCCUGACAGUGCUAAGGGGGCCUGGAAGUUUGGACUGGGCAGAGCUCAACACAGCGUGGCAAAGUGGCUGUGGCUAGACUGCCUCUCAGGAUUCCUCGUCACUCAGCAGGGCAUCUCUGAGAGAAAUGCC, UACGUAGGUGGUUUUCCCCUGACAGUGCUAAGGGGGCCUGGAAGUUUGGACUGGGCAGAGCUCAACACAGCGUGGCAAAGUGGCUGUGGCUAGACUGCCUCUCCGGAUUCCUCGUCACUCAGCAGGGCAUCUCUGAGAGAAAUGCC is higher in self-cleavage: 1.14 for the first, 1.78 for the second.

First: UACGUAGGUGGUUUUCCCCUGACAGUGCUAAGGGGGCCUGGAAGUUUGGACUGGGCAGAGCUCAACACAGCGUGGCAAAGUGGCUGUGGCUAGACUGCCUCUCUGGAAUCCUCGUCACUCAGCAGGGCAUCUCUGAGAGAAAUGCC
Second: UACGUAGGUGGUUUUCCCCUGACAGUGCUAAGGGGGCCUGGAAGUUUGGACUGGGCAGAGCUCAACACAGCGUGGCAAAGUGGCUGUGGCUAGACUGCCUCUCUGGACUCCUCGUCACUCAGCAGGGCAUCUCUGAGAGAAAUGCC
The self-cleavage of the first is lower: 1.33 for the first, 1.38 for the second.

First: UACGUAGGUGGUUUUCCCCUGACAGUGCUAAGGGGGCCUGGAAGUUUGGACUGGGCAGAGCUCAACACAGCGUGGCAAAGUGGCUGUGGCUAGACUGCCUCUCUGGAUUCCACGUCACUCAGCAGGGCAUCUCUGAGAGAAAUGCC
Second: UACGUAGGUGGUUUUCCCCUGACAGUGCUAAGGGGGCCUGGAAGUUUGGACUGGGCAGAGCUCAACACAGCGUGGCAAAGUGGCUGUGGCUAGACUGCCUCUCUGGAUUCCUCGUCACACAGCAGGGCAUCUCUGAGAGAAAUGCC
The self-cleavage of the first is higher: 1.37 for the first, 1.17 for the second.

Compared with UACGUAGGUGGUUUUCCCCUGACAGUGCUAAGGGGGCCUGGAAGUUUGGACUGGGCAGAGCUCAACACAGCGUGGCAAAGUGGCUGUGGCUAGACUGCCUCUCUGGAUUCCUCGUCACCCAGCAGGGCAUCUCUGAGAGAAAUGCC, UACGUAGGUGGUUUUCCCCUGACAGUGCUAAGGGGGCCUGGAAGUUUGGACUGGGCAGAGCUCAACACAGCGUGGCAAAGUGGCUGUGGCUAGACUGCCUCUCUGGAUUCCUCGUCACUCAGCAGGGCACCUCUGAGAGAAAUGCC is higher in self-cleavage: 1.61 for the first, 1.76 for the second.

Compared with UACGUAGGUGGUUUUCCCCUGACAGUGCUAAGGGGGCCUGGAAGUUUGGACUGGGCAGAGCUCAACACAGCGUGGCAAAGUGGCUGUGGCUAGACUGCCUCUCUGGAUUCCUCGUCACUCAGCAGGGCAUCUCUGAGAGAAACGCC, UACGUAGGUGGUUUUCCCCUGAGAGUGCUAAGGGGGCCUGGAAGUUUGGACUGGGCAGAGCUCAACACAGCGUGGCAAAGUGGCUGUGGCUAGACUGCCUCUCUGGAUUCCUCGUCACUCAGCAGGGCAUCUCUGAGAGGAAUGCC is lower in self-cleavage: 1.41 for the first, 1.27 for the second.

First: UACGUAGGUGGUUUUCCCCUGAGAGUGCUAAGGGGGCCUGGAAGUUUGGACUGGGCAGAGCUCAACACAGCGUGGCAAAGUGGCUGUGGGUAGACUGCCUCUCUGGAUUCCUCGUCACUCAGCAGGGCAUCUCUGAGAGAAAUGCC
Second: UACGUAGGUGGUUUUCCCCUGAGAGUGCUAAGGGGGCCUGGAAGUUUGGACUGGGCAGAGCUCAACACAGCGUGGCAAAGUGGCUGUGGCUAGACUGCCUCUCUGGAUUCCUCGUCACUCAUCAGGGCAUCUCUGAGAGAAAUGCC
The self-cleavage of the first is lower: 0.03 for the first, 1.17 for the second.

Going from UACGUAGGUGGUUUUCCCCUGAGAGUGCUAAGGGGGCCUGGAAGUUUGGACUGGGCAGAGCUCAACACAGCGUGGCAAAGUGGCUGUGGCUAGACUGCCUCUCUGGAUACCUCGUCACUCAGCAGGGCAUCUCUGAGAGAAAUGCC to UACGUAGGUGGUUUUCCCCUGAGAGUGCUAAGGGGGCCUGGAAGUUUGGACUGGGCAGAGCUCAACACAGCGUGGCAAAGUGGCUGUGGCUAGACUGCCUCUCUGGAUUCCUCGUCACUCAGCAGGGCAUCUCUGAGAGAAACGCC, the self-cleavage falls from 1 to 0.

First: UACGUAGGUGGUUUUCCCCUGAUCGUGCUAAGGGGGCCUGGAAGUUUGGACUGGGCAGAGCUCGACACAGCGUGGCAAAGUGGCUGUGGCUAGACUGCCUCUCUGGAUUCCUCGUCACUCAGCAGGGCAUCUCUGAGAGAAAUGCC
Second: UACGUAGGUGGUUUUCCCCUGAUCGUGCUAAGGGGGCCUGGAAGUUUGGACUGGGCAGAGCUCUACACAGCGUGGCAAAGUGGCUGUGGCUAGACUGCCUCUCUGGAUUCCUCGUCACUCAGCAGGGCAUCUCUGAGAGAAAUGCC
The self-cleavage of the first is higher: 0.64 for the first, 0.58 for the second.

Going from UACGUAGGUGGUUUUCCCCUGAUCGUGCUAAGGGGGCCUGGAAGUUUGGACUGGGCAGAGCUCAACGCAGCGUGGCAAAGUGGCUGUGGCUAGACUGCCUCUCUGGAUUCCUCGUCACUCAGCAGGGCAUCUCUGAGAGAAAUGCC to UACGUAGGUGGUUUUCCCCUGAUCGUGCUAAGGGGGCCUGGAAGUUUGGACUGGGCAGAGCUCAACACAGCGUGGCAAUGUGGCUGUGGCUAGACUGCCUCUCUGGAUUCCUCGUCACUCAGCAGGGCAUCUCUGAGAGAAAUGCC, the self-cleavage rises from 0.42 to 2.24.

First: UACGUAGGUGGUUUUCCCCUGAUCGUGCUAAGGGGGCCUGGAAGUUUGGACUGGGCAGAGCUCAACACAGCGUGGCAAAGUGGCUGUGGCUAGACUGCCUCUCUGGAUUCCUCGUCACUCAGCGGGGCAUCUCUGAGAGAAAUGCC
Second: UACGUAGGUGGUUUUCCCCUGAUCGUGCUAAGGGGGCCUGGAAGUUUGGACUGGGCAGAGCUCAACACAGCGUGGCAAAGUGGCUGUGGCUAGACUGCCUCUCUGGAUUCCUCGUCACUCAGCAGGGCAUCUCUGAGAGAACUGCC
The self-cleavage of the first is lower: 0.98 for the first, 1.13 for the second.

Going from UACGUAGGUGGUUUUCCCCUGAUCGUGCUAAGGGGGCCUGGAAGUUUGGACUGGGCAGAGCUCAACACAGCGAGGCAAAGUGGCUGUGGCUAGACUGCCUCUCUGGAUUCCUCGUCACUCAGCAGGGCAUCUCUGAGAGAAAUGCC to UACGUAGGUGGUUUUCCCCUGAUCGUGCUAAGGGGGCCUGGAAGUUUGGACUGGGCAGAGCUCAACACAGCGUGGCAAAGUGGCUGUGGCUAGACUGCCUCUCUGGAUUCCUCGUCACUCAGCAGGGCAUCUCGGAGAGAAAUGCC, the self-cleavage rises from 0.46 to 1.02.

Going from UACGUAGGUGGUUUUCCCCUGAUGGUGCUAUGGGGGCCUGGAAGUUUGGACUGGGCAGAGCUCAACACAGCGUGGCAAAGUGGCUGUGGCUAGACUGCCUCUCUGGAUUCCUCGUCACUCAGCAGGGCAUCUCUGAGAGAAAUGCC to UACGUAGGUGGUUUUCCCCUGAUGGUGCUAAGGGGGCCUGGAGGUUUGGACUGGGCAGAGCUCAACACAGCGUGGCAAAGUGGCUGUGGCUAGACUGCCUCUCUGGAUUCCUCGUCACUCAGCAGGGCAUCUCUGAGAGAAAUGCC, the self-cleavage falls from 1.37 to 1.12.

First: UACGUAGGUGGUUUUCCCCUGAUGGUGCUAAGGGGGCCUGGAUGUUUGGACUGGGCAGAGCUCAACACAGCGUGGCAAAGUGGCUGUGGCUAGACUGCCUCUCUGGAUUCCUCGUCACUCAGCAGGGCAUCUCUGAGAGAAAUGCC
Second: UACGUAGGUGGUUUUCCCCUGAUGGUGCUAAGGGGGCCUGGAAGUUUGGGCUGGGCAGAGCUCAACACAGCGUGGCAAAGUGGCUGUGGCUAGACUGCCUCUCUGGAUUCCUCGUCACUCAGCAGGGCAUCUCUGAGAGAAAUGCC
The self-cleavage of the first is higher: 1.54 for the first, 1.16 for the second.

Compared with UACGUAGGUGGUUUUCCCCUGAUGGUGCUAAGGGGGCCUGGAAGUUUGGACUGGGCCGAGCUCAACACAGCGUGGCAAAGUGGCUGUGGCUAGACUGCCUCUCUGGAUUCCUCGUCACUCAGCAGGGCAUCUCUGAGAGAAAUGCC, UACGUAGGUGGUUUUCCCCUGAUGGUGCUAAGGGGGCCUGGAAGUUUGGACUGGGCAGUGCUCAACACAGCGUGGCAAAGUGGCUGUGGCUAGACUGCCUCUCUGGAUUCCUCGUCACUCAGCAGGGCAUCUCUGAGAGAAAUGCC is higher in self-cleavage: 0 for the first, 1.17 for the second.

First: UACGUAGGUGGUUUUCCCCUGAUGGUGCUAAGGGGGCCUGGAAGUUUGGACUGGGCAGAGCUCCACACAGCGUGGCAAAGUGGCUGUGGCUAGACUGCCUCUCUGGAUUCCUCGUCACUCAGCAGGGCAUCUCUGAGAGAAAUGCC
Second: UACGUAGGUGGUUUUCCCCUGAUGGUGCUAAGGGGGCCUGGAAGUUUGGACUGGGCAGAGCUCGACACAGCGUGGCAAAGUGGCUGUGGCUAGACUGCCUCUCUGGAUUCCUCGUCACUCAGCAGGGCAUCUCUGAGAGAAAUGCC
The self-cleavage of the first is lower: 0.38 for the first, 0.53 for the second.

Compared with UACGUAGGUGGUUUUCCCCUGAUGGUGCUAAGGGGGCCUGGAAGUUUGGACUGGGCAGAGCUCAGCACAGCGUGGCAAAGUGGCUGUGGCUAGACUGCCUCUCUGGAUUCCUCGUCACUCAGCAGGGCAUCUCUGAGAGAAAUGCC, UACGUAGGUGGUUUUCCCCUGAUGGUGCUAAGGGGGCCUGGAAGUUUGGACUGGGCAGAGCUCAACUCAGCGUGGCAAAGUGGCUGUGGCUAGACUGCCUCUCUGGAUUCCUCGUCACUCAGCAGGGCAUCUCUGAGAGAAAUGCC is lower in self-cleavage: 0.3 for the first, 0.24 for the second.

First: UACGUAGGUGGUUUUCCCCUGAUGGUGCUAAGGGGGCCUGGAAGUUUGGACUGGGCAGAGCUCAACACGGCGUGGCAAAGUGGCUGUGGCUAGACUGCCUCUCUGGAUUCCUCGUCACUCAGCAGGGCAUCUCUGAGAGAAAUGCC
Second: UACGUAGGUGGUUUUCCCCUGAUGGUGCUAAGGGGGCCUGGAAGUUUGGACUGGGCAGAGCUCAACACAGCGUGGCUAAGUGGCUGUGGCUAGACUGCCUCUCUGGAUUCCUCGUCACUCAGCAGGGCAUCUCUGAGAGAAAUGCC
The self-cleavage of the first is lower: 0.92 for the first, 1.04 for the second.

Compared with UACGUAGGUGGUUUUCCCCUGAUGGUGCUAAGGGGGCCUGGAAGUUUGGACUGGGCAGAGCUCAACACAGCGUGGCAAGGUGGCUGUGGCUAGACUGCCUCUCUGGAUUCCUCGUCACUCAGCAGGGCAUCUCUGAGAGAAAUGCC, UACGUAGGUGGUUUUCCCCUGAUGGUGCUAAGGGGGCCUGGAAGUUUGGACUGGGCAGAGCUCAACACAGCGUGGCAAUGUGGCUGUGGCUAGACUGCCUCUCUGGAUUCCUCGUCACUCAGCAGGGCAUCUCUGAGAGAAAUGCC is higher in self-cleavage: 0.95 for the first, 1.59 for the second.

Work on UACGUAGGUGGUUUUCCCCUGAUGGUGCUAAGGGGGCCUGGAAGUUUGGACUGGGCAGAGCUCAACACAGCGUGGCAAAGUGGCUGUGGCUCGACUGCCUCUCUGGAUUCCUCGUCACUCAGCAGGGCAUCUCUGAGAGAAAUGCC yielded a self-cleavage of 0.
